Drawing on article PMC4869107, “In vitro flow cytometry-based screening platform for cellulase engineering” (Scientific Reports, 2016), this text covers Km, kcat and kcat/Km for three substances.

The term kcat denotes the number of substrate molecules converted per active site and unit of time at saturation. For orientation: kcat/Km means the turnover number divided by the Michaelis constant.

For this data set, the system named is T1, Cc1cc(=O)oc2cc(O[C@@H]3O[C@H](CO)[C@@H](O[C@@H]4O[C@H](CO)[C@@H](O)[C@H](O)[C@H]4O)[C@H](O)[C@H]3O)ccc12.
T1 construct: 604 residues, ~69 kDa; expressed in E. coli BL21 Gold (DE3)
Description: purified protein. It counts as biochemical, uncultured bacterium. To be noted: potassium phosphate pH 7.2, 30 °C (general assay; kinetics by cited protocol).

For the substance CelA2 (CelA2-WT) (uncultured bacterium), the Km is recorded as 48.37 (±2.43) μM, the kcat worked out at 0.00183 ± 0.00035 s⁻¹ and the kcat/Km was 33.3 M⁻¹ s⁻¹.
In the same order, the values of “CelA2 (CelA2-WT) (uncultured bacterium; H288F)” are 8.95 (±1.62) μM, 0.00833 ± 0.000367 s⁻¹ and 933 M⁻¹ s⁻¹.
With “CelA2 (CelA2-WT) (uncultured bacterium; H288F/N273D/N468S)”, the Km is recorded as 9.66 (±1.19) μM, the catalytic constant (kcat) was found to be 0.0253 ± 0.000767 s⁻¹ and the catalytic efficiency (kcat/Km) came out at 2620 M⁻¹ s⁻¹.
